Patent US20220146515A1 (XIAMEN INNODX BIOTECH, published 2022)

How the values were obtained:
Assay in all cases: competition ELISA, antibody preincubated with target, AMH-coated plate
[1] = target: T1, AMH truncated antigen 21-35 (human)
T1 peptide: GTEALRAEEPAVGTS
Protocol: (§1) 1. AMH antigen was diluted with carbonic acid buffer (20 mmol/L CB, pH 9.6) and then coated on a polyvinyl chloride plate. In the pretreatment, the antibody purified by the protein A column and the synthesized AMH truncated antigen sequences (see Table 3 for each synthetic sequence) were subjected to proportion incubation (100 ng/ml antibody: 50 ug/ml truncated antigen) for 30 minutes, that were test samples; the control sample was 100 ng/ml antibody: PBS, incubation for 30 minutes, and then the test samples after incubation and the control sample were added to AMH antigen plate and incubated for 30 minutes, the plate was washed for 5 times, added with GAM-HRP (1/5000 dilution) and incubated for 30 minutes, the plate was washed for 5 times, and the substrate was added and incubated for 15 minutes. The values under wavelength of 450/620 were read by microplate reader, and the detected OD values were finally calculated and analyzed. The calculation formula was: (control sample OD value−test sample OD value)/control sample OD value, and the criterion for determination was as follows: more than 90%, which indicated a good competitive effect, showing that the antibody should recognize the epitope.

[2] = target: T2, AMH truncated antigen 31-45 (human)
T2 peptide: AVGTSGLIFREDLDW
Protocol: as §1

[3] = target: T3, AMH truncated antigen 51-65 (human)
T3 peptide: QEPLCLVALGGDSNG
Protocol: as §1

[4] = target: T4, AMH truncated antigen 71-85 (human)
T4 peptide: RVVGALSAYEQAFLG
Protocol: as §1

[5] = target: T5, AMH truncated antigen 31-41 (human)
T5 peptide: AVGTSGLIFRE
Protocol: as §1

[6] = target: T6, AMH truncated antigen 31-42 (human)
T6 peptide: AVGTSGLIFRED
Protocol: as §1

[7] = target: T7, AMH truncated antigen 31-43 (human)
T7 peptide: AVGTSGLIFREDL
Protocol: as §1

[8] = target: T8, AMH truncated antigen 32-41 (human)
T8 peptide: VGTSGLIFRE
Protocol: as §1

[9] = target: T9, AMH truncated antigen 33-41 (human)
T9 peptide: GTSGLIFRE
Protocol: as §1

[10] = target: T10, AMH truncated antigen 34-41 (human)
T10 peptide: TSGLIFRE
Protocol: as §1

[11] = target: T11, AMH truncated antigen 34-45 (human)
T11 peptide: TSGLIFREDLDW
Protocol: as §1

[12] = target: T12, AMH truncated antigen 35-45 (human)
T12 peptide: SGLIFREDLDW
Protocol: as §1

[13] = target: T13, AMH truncated antigen 36-45 (human)
T13 peptide: GLIFREDLDW
Protocol: as §1

[14] = target: T14, AMH truncated antigen 36-47 (human)
T14 construct: also called human AMH36-47; AMH3647-27 (Human)
T14 peptide: GLIFREDLDWPP
Protocol: as §1

[15] = target: T15, AMH truncated antigen 37-44 (human)
T15 construct: Printed with a blank (LIFR EDLD)
T15 peptide: LIFREDLD
Protocol: as §1

[16] = target: T16, AMH truncated antigen 38-45 (human)
T16 peptide: IFREDLDW
Protocol: as §1

[17] = target: T17, AMH truncated antigen 40-46 (human)
T17 peptide: REDLDWP
Protocol: as §1

[18] = target: T18, AMH truncated antigen 40-47 (human)
T18 peptide: REDLDWPP
Protocol: as §1

[19] = target: T19, AMH truncated antigen 41-45 (human)
T19 peptide: EDLDW
Protocol: as §1

[20] = target: T20, AMH truncated antigen 41-46 (human)
T20 peptide: EDLDWP
Protocol: as §1

[21] = target: T21, AMH truncated antigen 41-48 (human)
T21 peptide: EDLDWPPG
Protocol: as §1

[22] = target: T22, AMH truncated antigen 41-49 (human)
T22 peptide: EDLDWPPGS
Protocol: as §1

[23] = target: T23, AMH truncated antigen 42-46 (human)
T23 peptide: DLDWP
Protocol: as §1

[24] = target: T24, AMH truncated antigen 42-47 (human)
T24 peptide: DLDWPP
Protocol: as §1

[25] = target: T25, AMH truncated antigen 42-48 (human)
T25 peptide: DLDWPPG
Protocol: as §1

[26] = target: T26, AMH truncated antigen 42-49 (human)
T26 peptide: DLDWPPGS
Protocol: as §1

[27] = target: T27, AMH truncated antigen 43-50 (human)
T27 peptide: LDWPPGSP
Protocol: as §1

[28] = target: T28, AMH truncated antigen 43-51 (human)
T28 peptide: LDWPPGSPQ
Protocol: as §1

B1: monoclonal antibody C9F2-2 (antibody, V domains shown)
VH: EVQLVESGGGLVKPGGSLKLSCAASGFAFSTYDMSWVRQTPEKRLEWVAYISPGGGATYYPDTVKGRFTISRDNAKNTLYLQMTSLKSEDTAMYYCAGRRDYYGMDYWGQGTSVTVSS
VL: DVVMTQTPLSLPVSLGDQASISCRSSQSLVHSNGNTYLHWYLQKPGQSPKLLIYKVSNRFSGVPDRFSGSGSGTDFTLKISRVEAEDLGVYFCSQSTHVPWTFGGGTKLEIK
notes: Mouse hybridoma antibody purified from ascites; the tie is indirect; also called hybridoma CCTCC NO: C2018183
Work on B1 yielded a percent inhibition [1] of 10%, a percent inhibition [2] of 90% and a percent inhibition [3] of 9%. For the same binder, the percent inhibition [4] was 21%, the percent inhibition [5] was 10% and the percent inhibition [6] was 16%. The percent inhibition [7] was 25%, the percent inhibition [8] was 9% and the percent inhibition [9] was 9%. For the same binder, the percent inhibition [10] was 3%, the percent inhibition [11] was 98% and the percent inhibition [12] was 97%. It also gave a percent inhibition [13] of 94%, a percent inhibition [14] of 100% and a percent inhibition [15] of 24%. It also gave a percent inhibition [16] of 92%, a percent inhibition [17] of -2% and a percent inhibition [18] of -19%. It also gave a percent inhibition [19] of 15%, a percent inhibition [20] of 15% and a percent inhibition [21] of -1%. For the same binder, the percent inhibition [22] was 3%, the percent inhibition [23] was -10% and the percent inhibition [24] was 6%. For the same binder, the percent inhibition [25] was 2%, the percent inhibition [26] was -8% and the percent inhibition [27] was 17%. The percent inhibition [28] was -10%.
